The source of these data is US20030235535A1 (University of California, published 2003).

For test [1], the target named is PKR2 stably expressed in Chinese Hamster Ovary cells (CHO-PKR2). The test is described as follows: cell-based or functional assay.
Test [2] concerns the target T1, mouse PK2 receptor (mouse, UniProt Q8K458 1-381).
T1 construct: Heptahelical G-protein-coupled receptor; also called mouse PKR2
The test is described as follows: cell-based or functional assay.

The target in test [3] is T1, mouse PK2 receptor. The test can be described thus: radioligand binding assay with iodinated PK2 (FIG. 11). The source says: An exemplary assay for determining binding of detectably labeled PK2, PK1 or PK2/PK1 chimera to PK2 receptor or PK1 receptor is the radioligand filter binding assay described in Li et al. Molecular Pharmacology 59:692-698 (2001)). […] A variety of other low- and high-throughput assays suitable for detecting selective binding interactions between a receptor and a ligand are known in the art. Such assays include, for example, fluorescence correlation spectroscopy (FCS) and scintillation proximity assays (SPA) reviewed in Major, J. Receptor and Signal Transduction Res. 15:595-607 (1995); and in Sterrer et al., J. Receptor and Signal Transduction Res. 17:511-520 (1997)). Binding assays can be performed in any suitable assay format including, for example, cell preparations such as whole cells or membranes that contain PK2 receptor or PK1 receptor, or substantially purified PK2 receptor polypeptide or PK1 receptor, either in solution or bound to a solid support.

T1 sequence (Q8K458 whole entry): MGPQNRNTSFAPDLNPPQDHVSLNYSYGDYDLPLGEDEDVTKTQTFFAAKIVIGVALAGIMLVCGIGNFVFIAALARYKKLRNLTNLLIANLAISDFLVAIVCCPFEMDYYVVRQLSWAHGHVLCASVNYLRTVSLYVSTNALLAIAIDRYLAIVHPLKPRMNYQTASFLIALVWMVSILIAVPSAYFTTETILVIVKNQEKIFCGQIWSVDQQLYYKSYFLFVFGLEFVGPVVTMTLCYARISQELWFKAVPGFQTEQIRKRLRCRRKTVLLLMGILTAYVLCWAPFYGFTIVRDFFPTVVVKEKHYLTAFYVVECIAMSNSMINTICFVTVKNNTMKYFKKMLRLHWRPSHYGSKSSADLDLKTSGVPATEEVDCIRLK

On to “purified recombinant mouse PK2 (from UniProt Q9QXU7 27-128) (ligand)”, for which, in test [1], the EC50, calcium mobilization stood at 7.3 nM and the fold stimulation of CLOCK:BMAL1-mediated transcription of the 2.8 kb PK2 promoter (luciferase reporter) came to 4 fold.

In the case of “human PK2 (from UniProt Q9HC23 28-129) (ligand)”, in the test with mouse PK2 receptor [2], the calcium ion mobilization (PK2 receptor activation assay), printed as kd was found to be 2.9 nM.

B1: ^125I-human PK2 (ligand)
chain: AVITGACDKDSQCGGGMCCAVSIWVKSIRICTPMGKLGDSCHPLTRKVPFFGRRMHHTCPCLPGLACLRTSFNRFICLAQK
modifications: radioiodinated with ^125I (paragraph 77 describes human PK2 radioiodinated at the core Tyr, citing Li et al. 2001)
notes: also called iodinated PK2
For B1, in the test with mouse PK2 receptor [3], the Kd (in general, a measure of binding affinity in units of concentration) is around 1 nM.
